Measured values as given in publication PMC6385319.

Target: T1, mCherry-APPL1-delta-PTB
T1 sequence (Q9UKG1 whole entry, species assumed, looked up): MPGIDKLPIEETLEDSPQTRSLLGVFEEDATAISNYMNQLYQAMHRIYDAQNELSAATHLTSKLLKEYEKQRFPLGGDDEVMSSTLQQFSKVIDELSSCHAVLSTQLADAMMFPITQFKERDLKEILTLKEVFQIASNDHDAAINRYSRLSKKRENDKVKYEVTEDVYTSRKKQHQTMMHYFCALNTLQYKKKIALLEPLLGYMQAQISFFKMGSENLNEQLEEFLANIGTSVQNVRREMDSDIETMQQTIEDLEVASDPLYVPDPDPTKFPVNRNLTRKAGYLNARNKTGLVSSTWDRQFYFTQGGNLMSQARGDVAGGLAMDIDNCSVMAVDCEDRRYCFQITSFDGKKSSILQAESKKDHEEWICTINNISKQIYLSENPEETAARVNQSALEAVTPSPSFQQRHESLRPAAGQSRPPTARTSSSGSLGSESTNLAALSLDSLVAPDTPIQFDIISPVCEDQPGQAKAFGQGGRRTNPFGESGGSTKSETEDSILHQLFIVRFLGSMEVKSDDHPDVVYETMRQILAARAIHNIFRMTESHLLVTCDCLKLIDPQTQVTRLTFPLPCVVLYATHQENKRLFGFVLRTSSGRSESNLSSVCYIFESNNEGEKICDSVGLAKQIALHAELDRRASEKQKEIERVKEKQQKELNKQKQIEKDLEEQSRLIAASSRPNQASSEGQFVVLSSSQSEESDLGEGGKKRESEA
Test: FRET or BRET; FRET/FLIM in live primary hippocampal neurons at DIV 7, 37 °C; GFP-Akt1 donor, mCherry fusion acceptor; donor lifetime measured in cell body and growth cone; untreated

Chain of GFP-Akt1 (P31749 whole entry, the tested form may be a part): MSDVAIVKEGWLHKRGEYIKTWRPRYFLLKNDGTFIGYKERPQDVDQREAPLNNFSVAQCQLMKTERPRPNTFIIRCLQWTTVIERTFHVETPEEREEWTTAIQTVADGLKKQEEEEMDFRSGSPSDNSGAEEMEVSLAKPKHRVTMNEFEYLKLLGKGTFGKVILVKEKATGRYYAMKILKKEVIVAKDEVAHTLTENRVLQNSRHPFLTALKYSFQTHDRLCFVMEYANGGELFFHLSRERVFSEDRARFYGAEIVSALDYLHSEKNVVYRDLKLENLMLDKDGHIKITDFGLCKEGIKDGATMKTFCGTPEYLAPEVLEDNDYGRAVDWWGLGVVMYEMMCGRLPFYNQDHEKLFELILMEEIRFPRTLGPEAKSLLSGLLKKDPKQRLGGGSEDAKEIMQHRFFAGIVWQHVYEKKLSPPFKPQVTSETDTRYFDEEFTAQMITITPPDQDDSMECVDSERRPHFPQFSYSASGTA

FRET efficiency (growth cone): < 1%
Substance: GFP-Akt1 (from UniProt P31749 1-480)
